The results in this text go back to patent US20060078537A1.

The test concerns the target human CCR5 (human) (UniProt P51681). As to the kind of experiment: cell-based or functional assay.

human CCR5 (human), sequence (P51681 whole entry): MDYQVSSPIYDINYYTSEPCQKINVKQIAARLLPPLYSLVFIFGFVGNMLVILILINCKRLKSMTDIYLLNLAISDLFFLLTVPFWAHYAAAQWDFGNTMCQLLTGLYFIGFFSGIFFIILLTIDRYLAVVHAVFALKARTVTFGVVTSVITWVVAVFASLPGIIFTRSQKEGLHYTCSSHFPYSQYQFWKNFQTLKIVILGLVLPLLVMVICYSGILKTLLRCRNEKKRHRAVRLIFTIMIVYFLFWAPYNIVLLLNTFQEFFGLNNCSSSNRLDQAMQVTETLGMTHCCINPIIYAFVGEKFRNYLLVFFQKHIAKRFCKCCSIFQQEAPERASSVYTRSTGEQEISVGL

B1: MC-1 anti-CCR5 monoclonal antibody (antibody, from another filing, V domains shown)
VH: QVQLQQPGAGRVRPGASVKLSCKASGYSFTSYWMNWVKQRPGQGLEWIGMIHPSDSETRLNQKFNDRATLTVDKYSSTAYIQLSSPTSEDSAVYYCARGEYYYGIFDYWGQGTTVTVSS
VL: DIQLTQSPASLSASVGETVTITCRASENIYSYLAWYQQKQGKSPQLLVYNAKTLTEGVPSRFSGSGSGTQFSLKINSLQPEDFGNYFCQHHYDTPRTFGGGTKLEIK
The molecule B1 registered a decrease of cell surface CCR5 on CHO cells expressing CCR5 (FACS, 30 minutes at 37° C.) at 5 µg/ml MC-1 of 50%.
